T1: ETS1 (Homo sapiens, UniProt P14921)
T1 sequence: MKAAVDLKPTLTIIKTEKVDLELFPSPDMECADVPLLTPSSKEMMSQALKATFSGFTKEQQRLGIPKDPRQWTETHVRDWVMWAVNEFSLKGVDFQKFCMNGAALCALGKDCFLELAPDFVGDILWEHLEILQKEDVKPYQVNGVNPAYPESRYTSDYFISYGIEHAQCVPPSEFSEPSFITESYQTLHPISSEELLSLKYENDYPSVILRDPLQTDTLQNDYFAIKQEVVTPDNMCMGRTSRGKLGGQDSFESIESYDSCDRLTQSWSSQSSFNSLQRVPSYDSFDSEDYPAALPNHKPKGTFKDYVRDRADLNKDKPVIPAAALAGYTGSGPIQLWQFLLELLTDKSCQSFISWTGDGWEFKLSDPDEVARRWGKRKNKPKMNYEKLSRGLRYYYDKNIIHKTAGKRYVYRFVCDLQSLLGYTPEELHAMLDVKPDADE

B1: Table S2 B row 3477 (dsDNA)
DNA 1: CTACCGGGAGTGCAGGTCGCGCTTCCGGCGGCGTCC
DNA 2: GGACGCCGCCGGAAGCGCGACCTGCACTCCCGGTAG
B2: Table S2 B row 479 (dsDNA)
DNA 1: CACTTCCCCCAGCCTCTCTTTTTAATACGACAATAG
DNA 2: CTATTGTCGTATTAAAAAGAGAGGCTGGGGGAAGTG
B3: Table S2 B row 3084 (dsDNA)
DNA 1: TTTGCACACATCCTGGCCTCCGCCTGAGCACCTCCT
DNA 2: AGGAGGTGCTCAGGCGGAGGCCAGGATGTGTGCAAA
B4: Table S2 B row 813 (dsDNA)
DNA 1: TGATGTAGAATCCGCTCGGCTTCCGGCGAGGGTGGG
DNA 2: CCCACCCTCGCCGGAAGCCGAGCGGATTCTACATCA
B5: Table S2 B row 1731 (dsDNA)
DNA 1: GACTGGTTTCCTGGTTTTGATGTAGTTTAGAGAAAA
DNA 2: TTTTCTCTAAACTACATCAAAACCAGGAAACCAGTC
B6: Table S2 B row 1126 (dsDNA)
DNA 1: TCCAGCCCCACCGGAAGTGGATGTGATTAATCTAGT
DNA 2: ACTAGATTAATCACATCCACTTCCGGTGGGGCTGGA
B7: Table S2 B row 875 (dsDNA)
DNA 1: AGGCAGCACAGGAAGTTATAACTACATGTACACTTG
DNA 2: CAAGTGTACATGTAGTTATAACTTCCTGTGCTGCCT
B8: Table S2 B row 544 (dsDNA)
DNA 1: GCTCCCGGATGTTCTGGGGATCAGCGCCCGCCTGGC
DNA 2: GCCAGGCGGGCGCTGATCCCCAGAACATCCGGGAGC
B9: Table S2 B row 540 (dsDNA)
DNA 1: AACAAACCGGATGGGGTTGCCACCTGCAATCTTGTC
DNA 2: GACAAGATTGCAGGTGGCAACCCCATCCGGTTTGTT
B10: Table S2 B row 1042 (dsDNA)
DNA 1: GGTCCGGATGTATAAAGCGCGGCCCCCTGGGGGGAG
DNA 2: CTCCCCCCAGGGGGCCGCGCTTTATACATCCGGACC
B11: Table S2 B row 3602 (dsDNA)
DNA 1: TGTCGGGCGGATGTGTACCGGCGTTAATATAGTAAG
DNA 2: CTTACTATATTAACGCCGGTACACATCCGCCCGACA
B12: Table S2 B row 2920 (dsDNA)
DNA 1: GGCGCTAGGCTTCCGGATCGCGCTGGGCGGAGTTCA
DNA 2: TGAACTCCGCCCAGCGCGATCCGGAAGCCTAGCGCC
B13: Table S2 B row 3902 (dsDNA)
DNA 1: TGGGGCCCGGAAGCGCTGGCGCCTTACGGCCAGAAG
DNA 2: CTTCTGGCCGTAAGGCGCCAGCGCTTCCGGGCCCCA
B14: Table S2 B row 3281 (dsDNA)
DNA 1: GACCTGACAACATCCTGGCGCAGTGAGTTGGCCCTG
DNA 2: CAGGGCCAACTCACTGCGCCAGGATGTTGTCAGGTC
B15: Table S2 B row 799 (dsDNA)
DNA 1: ATGAACCACTTCCTGTGTGTTCCCAGAGAGGTCAGG
DNA 2: CCTGACCTCTCTGGGAACACACAGGAAGTGGTTCAT
B16: Table S2 B row 575 (dsDNA)
DNA 1: GCAGTGCAGGAAGTGCTTTGTCTGGTACAATCCCAA
DNA 2: TTGGGATTGTACCAGACAAAGCACTTCCTGCACTGC
B17: Table S2 B row 573 (dsDNA)
DNA 1: GCCACCGTATTTCCGCGTTTTTCGAGGTAGGCGGGA
DNA 2: TCCCGCCTACCTCGAAAAACGCGGAAATACGGTGGC
B18: Table S2 B row 145 (dsDNA)
DNA 1: CCACCATCTTTCCGGCTCCCTCGCGACCTCCACGAC
DNA 2: GTCGTGGAGGTCGCGAGGGAGCCGGAAAGATGGTGG
B19: Table S2 B row 1606 (dsDNA)
DNA 1: CCGCTTCCTTAGAGGTTAAGTGGTGGAGGTTCAGTT
DNA 2: AACTGAACCTCCACCACTTAACCTCTAAGGAAGCGG
B20: Table S2 B row 306 (dsDNA)
DNA 1: GAGAAACAGGAAGAGGGGTGGTGCTTACGGAACACG
DNA 2: CGTGTTCCGTAAGCACCACCCCTCTTCCTGTTTCTC
B21: Table S2 B row 1543 (dsDNA)
DNA 1: AAACCAGAGAGGAAGTGGCACCTCATGGCCAGACTG
DNA 2: CAGTCTGGCCATGAGGTGCCACTTCCTCTCTGGTTT
B22: Table S2 B row 1163 (dsDNA)
DNA 1: ATCACTTGTTTCCGCCAGCAAATCACAGGTCCCCAG
DNA 2: CTGGGGACCTGTGATTTGCTGGCGGAAACAAGTGAT
B23: Table S2 B row 4083 (dsDNA)
DNA 1: GCCCCAGCGTTTCCTCTTACCCAAAATGCCCCGCCC
DNA 2: GGGCGGGGCATTTTGGGTAAGAGGAAACGCTGGGGC
B24: Table S2 B row 1979 (dsDNA)
DNA 1: CTGAAACAGGAAGCTGAGGGTGCCGTTGGGGGAGGA
DNA 2: TCCTCCCCCAACGGCACCCTCAGCTTCCTGTTTCAG
B25: Table S2 B row 159 (dsDNA)
DNA 1: GTAAAAGAGGAAGTAACACCTCCTTGACGTTGAGAC
DNA 2: GTCTCAACGTCAAGGAGGTGTTACTTCCTCTTTTAC
B26: Table S3 B row 2036 (dsDNA)
DNA 1: GATTGCGGTTGGGACTTTCCCTAAGTCATTTGCTGT
DNA 2: ACAGCAAATGACTTAGGGAAAGTCCCAACCGCAATC
B27: Table S3 B row 3808 (dsDNA)
DNA 1: GCCCTTCTTGCGGTTTTCATGGCAGGGTGTTAACAT
DNA 2: ATGTTAACACCCTGCCATGAAAACCGCAAGAAGGGC
B28: Table S3 B row 2580 (dsDNA)
DNA 1: GTCGCTGCGGTTTTGGGGTTGGCATGCTGTCCTCTG
DNA 2: CAGAGGACAGCATGCCAACCCCAAAACCGCAGCGAC
B29: Table S3 B row 3447 (dsDNA)
DNA 1: TGATTGCGGTTTCGGTCGCTCTCCCGTGTTTGCCGG
DNA 2: CCGGCAAACACGGGAGAGCGACCGAAACCGCAATCA
B30: Table S3 B row 3968 (dsDNA)
DNA 1: CCGAGTTGCGGTTTCTCCGTTAGTGCTTACGGGTTG
DNA 2: CAACCCGTAAGCACTAACGGAGAAACCGCAACTCGG
B31: Table S3 B row 3820 (dsDNA)
DNA 1: TTTTGCGGTTTTTGATCTGGAAGCCACACAGCCTTA
DNA 2: TAAGGCTGTGTGGCTTCCAGATCAAAAACCGCAAAA
B32: Table S3 B row 852 (dsDNA)
DNA 1: CGGCAGCTTGCGGTTAGCCGTTCTTTCAGCCCAGTT
DNA 2: AACTGGGCTGAAAGAACGGCTAACCGCAAGCTGCCG

biological target: T1, ETS1; test: gcPBM; 1 nM ETS1; conditions: tags: N-terminal GST (pDEST15), kept (PMC6008103); label: surface-attached array probe

Q: B1 was tested. Which binding signal did it give?
A: Its binding signal is 3610 PBM fluorescence, median of replicate spots.

Q: For B2, which binding signal is on record?
A: Its binding signal is 2920 PBM fluorescence, median of replicate spots.

Q: With B3 as the binder, how does the binding signal read?
A: Its binding signal is 3370 PBM fluorescence, median of replicate spots.

Q: B4 was tested. Which binding signal did it give?
A: Its binding signal is 4160 PBM fluorescence, median of replicate spots.

Q: For B5, which binding signal is on record?
A: The binding signal was 3820 PBM fluorescence, median of replicate spots.

Q: With B6 as the binder, how does the binding signal read?
A: Its binding signal is 25900 PBM fluorescence, median of replicate spots.

Q: Which binding signal does the source give for B7 here?
A: Its binding signal is 4250 PBM fluorescence, median of replicate spots.

Q: For B8, which binding signal is on record?
A: The binding signal was 3300 PBM fluorescence, median of replicate spots.

Q: B9 was tested. Which binding signal did it give?
A: The binding signal was 3220 PBM fluorescence, median of replicate spots.

Q: B10 was tested. Which binding signal did it give?
A: Its binding signal is 2790 PBM fluorescence, median of replicate spots.

Q: B11 was tested. Which binding signal did it give?
A: The binding signal was 2800 PBM fluorescence, median of replicate spots.

Q: How did the binding signal turn out when B12 was run?
A: Its binding signal is 2860 PBM fluorescence, median of replicate spots.

Q: How did the binding signal turn out when B13 was run?
A: The binding signal was 3570 PBM fluorescence, median of replicate spots.

Q: Which binding signal does the source give for B14 here?
A: The binding signal was 3720 PBM fluorescence, median of replicate spots.

Q: For B15, which binding signal is on record?
A: The binding signal was 25100 PBM fluorescence, median of replicate spots.

Q: Which binding signal does the source give for B16 here?
A: The binding signal was 4090 PBM fluorescence, median of replicate spots.

Q: How did the binding signal turn out when B17 was run?
A: Its binding signal is 3870 PBM fluorescence, median of replicate spots.

Q: B18 was tested. Which binding signal did it give?
A: The binding signal was 3090 PBM fluorescence, median of replicate spots.

Q: B19 was tested. Which binding signal did it give?
A: Its binding signal is 3060 PBM fluorescence, median of replicate spots.

Q: With B20 as the binder, how does the binding signal read?
A: The binding signal was 2960 PBM fluorescence, median of replicate spots.

Q: How did the binding signal turn out when B21 was run?
A: Its binding signal is 3160 PBM fluorescence, median of replicate spots.

Q: For B22, which binding signal is on record?
A: Its binding signal is 3770 PBM fluorescence, median of replicate spots.

Q: B23 was tested. Which binding signal did it give?
A: Its binding signal is 3440 PBM fluorescence, median of replicate spots.

Q: How did the binding signal turn out when B24 was run?
A: Its binding signal is 3960 PBM fluorescence, median of replicate spots.

Q: B25 was tested. Which binding signal did it give?
A: The binding signal was 2720 PBM fluorescence, median of replicate spots.

biological target: RUNX1 (Homo sapiens, UniProt Q01196); test: gcPBM; 2 nM RUNX1; conditions: tags: N-terminal GST (pDEST15), kept (PMC6008103); label: surface-attached array probe
Sequence (Q01196 whole entry): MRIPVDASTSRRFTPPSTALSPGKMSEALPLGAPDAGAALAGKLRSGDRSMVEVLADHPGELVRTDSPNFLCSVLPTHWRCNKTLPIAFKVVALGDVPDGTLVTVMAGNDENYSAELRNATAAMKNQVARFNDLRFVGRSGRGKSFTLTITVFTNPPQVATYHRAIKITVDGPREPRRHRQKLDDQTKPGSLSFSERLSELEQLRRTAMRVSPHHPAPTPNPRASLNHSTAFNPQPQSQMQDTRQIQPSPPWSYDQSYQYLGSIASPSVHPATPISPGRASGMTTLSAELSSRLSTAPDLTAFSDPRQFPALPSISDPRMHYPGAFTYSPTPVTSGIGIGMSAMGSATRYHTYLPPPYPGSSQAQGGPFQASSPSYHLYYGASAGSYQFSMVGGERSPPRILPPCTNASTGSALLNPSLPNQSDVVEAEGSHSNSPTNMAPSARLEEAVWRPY

Q: How did the binding signal turn out when B26 was run?
A: The binding signal was 53200 PBM fluorescence, median of replicate spots.

Q: With B27 as the binder, how does the binding signal read?
A: Its binding signal is 60800 PBM fluorescence, median of replicate spots.

Q: For B28, which binding signal is on record?
A: The binding signal was 58800 PBM fluorescence, median of replicate spots.

Q: Which binding signal does the source give for B29 here?
A: Its binding signal is 50800 PBM fluorescence, median of replicate spots.

Q: B30 was tested. Which binding signal did it give?
A: The binding signal was 54300 PBM fluorescence, median of replicate spots.

Q: With B31 as the binder, how does the binding signal read?
A: Its binding signal is 57800 PBM fluorescence, median of replicate spots.

Q: For B32, which binding signal is on record?
A: Its binding signal is 48900 PBM fluorescence, median of replicate spots.

From article PMC10681739, “High-throughput data and modeling reveal insights into the mechanisms of cooperative DNA-binding by transcription factor proteins”
